The numbers were not newly measured in publication doi:10.1101/2025.04.17.649309, which cites them from elsewhere.

A word on the pKa: it is the pH at which an ionisable group is half protonated.

The data set concerns the target Cys12 (UniProt position 12, YTKETCPYCHR).

With “Glutaredoxin 3 (Grx3) (Escherichia coli)”, the pKa is 4.1.
